The text below walks through data of article PMC4678811, “Assembly and dynamics of the U4/U6 di-snRNP by single-molecule FRET” (Nucleic Acids Research, 2015).

Assay in all cases: EMSA
Data set [1] concerns Prp3/4 (Prp3-Prp4 complex);Snu13;Prp31;Sm protein complex (SmB, D1, D2, D3, E, F, G) (Saccharomyces cerevisiae;Saccharomyces cerevisiae;Saccharomyces cerevisiae;Saccharomyces cerevisiae). The note with it: Prp3/4 titrated; Snu13, Prp31, Sm prebound; apparent; Hill 1; EMSA: 2 nM RNA, 10 mM K-HEPES pH 7.5, 100 mM KCl, 0.01% NP-40, 20 ug E. coli tRNA in 100 ul, on ice 60 min, 4% native gel 0.5X TBE 4 C; smFRET: 10 mM Tris-HCl …. Background: In EMSA bound probe runs differently from free probe, usually more slowly.

The subject of data set [2] is LSm2-LSm8 complex;Snu13;Prp31;Sm protein complex (SmB, D1, D2, D3, E, F, G) (Saccharomyces cerevisiae;Saccharomyces cerevisiae;Saccharomyces cerevisiae;Saccharomyces cerevisiae). The following applies: LSm titrated; Snu13, Prp31, Sm prebound; apparent; Hill 1; text prints 152; EMSA: 2 nM RNA, 10 mM K-HEPES pH 7.5, 100 mM KCl, 0.01% NP-40, 20 ug E. coli tRNA in 100 ul, on ice 60 min, 4% native gel 0.5X TBE 4 C; smFRET: 10 mM Tris-HCl ….

In data set [3] the test system is Sm protein complex (SmB, D1, D2, D3, E, F, G);Snu13;Prp31 (Saccharomyces cerevisiae;Saccharomyces cerevisiae;Saccharomyces cerevisiae). The note with it: Sm titrated; Snu13, Prp31 prebound; apparent; Hill 2.3; EMSA: 2 nM RNA, 10 mM K-HEPES pH 7.5, 100 mM KCl, 0.01% NP-40, 20 ug E. coli tRNA in 100 ul, on ice 60 min, 4% native gel 0.5X TBE 4 C; smFRET: 10 mM Tris-HCl ….

For data set [4], the system named is Prp3/4 (Prp3-Prp4 complex);Snu13;Prp31 (Saccharomyces cerevisiae;Saccharomyces cerevisiae;Saccharomyces cerevisiae). The following applies: Prp3/4 titrated; Snu13, Prp31 prebound; apparent; Hill 1.5; EMSA: 2 nM RNA, 10 mM K-HEPES pH 7.5, 100 mM KCl, 0.01% NP-40, 20 ug E. coli tRNA in 100 ul, on ice 60 min, 4% native gel 0.5X TBE 4 C; smFRET: 10 mM Tris-HCl ….
For data set [5], the system named is LSm2-LSm8 complex;Snu13;Prp31 (Saccharomyces cerevisiae;Saccharomyces cerevisiae;Saccharomyces cerevisiae). The note with it: LSm titrated; Snu13, Prp31 prebound; apparent; Hill 1; EMSA: 2 nM RNA, 10 mM K-HEPES pH 7.5, 100 mM KCl, 0.01% NP-40, 20 ug E. coli tRNA in 100 ul, on ice 60 min, 4% native gel 0.5X TBE 4 C; smFRET: 10 mM Tris-HCl ….
The subject of data set [6] is Prp31;Snu13 (Saccharomyces cerevisiae;Saccharomyces cerevisiae). The note with it: Prp31 titrated; Snu13 prebound; apparent; Hill 2.9; EMSA: 2 nM RNA, 10 mM K-HEPES pH 7.5, 100 mM KCl, 0.01% NP-40, 20 ug E. coli tRNA in 100 ul, on ice 60 min, 4% native gel 0.5X TBE 4 C; smFRET: 10 mM Tris-HCl ….
Data set [7] relates to Prp3/4 (Prp3-Prp4 complex);Snu13 (Saccharomyces cerevisiae;Saccharomyces cerevisiae). The note with it: Prp3/4 titrated; Snu13 prebound; apparent; Hill 3.4; EMSA: 2 nM RNA, 10 mM K-HEPES pH 7.5, 100 mM KCl, 0.01% NP-40, 20 ug E. coli tRNA in 100 ul, on ice 60 min, 4% native gel 0.5X TBE 4 C; smFRET: 10 mM Tris-HCl ….
In data set [8] the test system is LSm2-LSm8 complex;Snu13 (Saccharomyces cerevisiae;Saccharomyces cerevisiae). The note with it: LSm titrated; Snu13 prebound; apparent; Hill 3.3; EMSA: 2 nM RNA, 10 mM K-HEPES pH 7.5, 100 mM KCl, 0.01% NP-40, 20 ug E. coli tRNA in 100 ul, on ice 60 min, 4% native gel 0.5X TBE 4 C; smFRET: 10 mM Tris-HCl ….
Data set [9] relates to Prp3/4 (Prp3-Prp4 complex);Snu13;Prp31;Sm protein complex (SmB, D1, D2, D3, E, F, G);LSm2-LSm8 complex (Saccharomyces cerevisiae;Saccharomyces cerevisiae;Saccharomyces cerevisiae;Saccharomyces cerevisiae;Saccharomyces cerevisiae). The note with it: EMSA: 2 nM RNA, 10 mM K-HEPES pH 7.5, 100 mM KCl, 0.01% NP-40, 20 ug E. coli tRNA in 100 ul, on ice 60 min, 4% native gel 0.5X TBE 4 C; smFRET: 10 mM Tris-HCl ….

Data set [10] concerns Sm protein complex (SmB, D1, D2, D3, E, F, G);Snu13 (Saccharomyces cerevisiae;Saccharomyces cerevisiae). The following applies: Sm titrated; Snu13 prebound; apparent; Hill 2.2; EMSA: 2 nM RNA, 10 mM K-HEPES pH 7.5, 100 mM KCl, 0.01% NP-40, 20 ug E. coli tRNA in 100 ul, on ice 60 min, 4% native gel 0.5X TBE 4 C; smFRET: 10 mM Tris-HCl ….

On to U4/U6 snRNA duplex (full length), for which the Kd was 557 nM in data set [1]; 154 nM in data set [2]; 108 nM in data set [3]; 417 nM in [4]; 98 nM in [5]; 50 nM in data set [6]. Also, the Kd came to 88 nM in data set [7], 26 nM in data set [8], 20 nM in data set [9] and 92 nM in data set [10].
